From US20210388041A1 (NEXEL, published 2021)

What was measured:
[1] = molecular target: T1, integrin β3 (integrin αvβ3) (human, UniProt P05106 27-788; P06756 31-1048); assay: proximity ligation assay in human HSCs
T1 construct: whole, on cells; The assays detect the β3 chain with an antibody; The legend speaks of integrin αvβ3 on HSCs; also called Integrin B3; integrin β3/β5
Protocol: (§1) For the PLA incorporation assay, human HSCs were seeded at 2×10⁴ cells per well on the 18 mm circular cover glass in 12-well plates and cultured for 24 hours. After serum starvation for 24 hours, the cells were treated with 10 ng/ml of TGF-β1 and/or 500 ng/ml of NP-011, and then, further incubated for 30 minutes. The PLA incorporation was accessed using the Duolink In Situ Red Starter Kit (Merck) according to the manufacturer's instructions. Digital images of PLA-positive cells were captured using a microscope (Nikon) and analyzed using ImageJ software <https://imagej.nih.gov/iy>.
(§2) It was investigated herein the mechanism of action for NP-011's rapid and effective suppression TGF-β signaling observed in diseased liver (FIGS. 1E and 2F). One day after administration of NP-011 in TAA-induced fibrotic liver, NP-011 preferentially bound to α-SMA-positive HSCs, and some of NP-011 interacted with macrophages in the liver (FIG. 6). Integrin αvβ3 and αvβ5 on the surface of HSCs have been previously implicated in regulating fibrosis. Additionally, the crosstalk between integrin and TGF-β signaling may be important in the regulation of pathological epithelial to mesenchymal transition (EMT) and myofibroblast differentiation. […] As a consequences of NP-011 treatment in TGF-β1-treated HSCs, the proliferative HSCs returned to quiescent status (FIG. 7D). […]

[2] = molecular target: T2, integrin β5 (integrin αvβ5) (human, UniProt P18084 24-799; P06756 31-1048); assay: proximity ligation assay in human HSCs
T2 construct: whole, on cells; The assays detect the β5 chain with an antibody; The legend speaks of integrin αvβ5 on HSCs; also called Integrin B5; integrin β3/β5
T2 sequence (P18084 24-799, chain 1 of 2): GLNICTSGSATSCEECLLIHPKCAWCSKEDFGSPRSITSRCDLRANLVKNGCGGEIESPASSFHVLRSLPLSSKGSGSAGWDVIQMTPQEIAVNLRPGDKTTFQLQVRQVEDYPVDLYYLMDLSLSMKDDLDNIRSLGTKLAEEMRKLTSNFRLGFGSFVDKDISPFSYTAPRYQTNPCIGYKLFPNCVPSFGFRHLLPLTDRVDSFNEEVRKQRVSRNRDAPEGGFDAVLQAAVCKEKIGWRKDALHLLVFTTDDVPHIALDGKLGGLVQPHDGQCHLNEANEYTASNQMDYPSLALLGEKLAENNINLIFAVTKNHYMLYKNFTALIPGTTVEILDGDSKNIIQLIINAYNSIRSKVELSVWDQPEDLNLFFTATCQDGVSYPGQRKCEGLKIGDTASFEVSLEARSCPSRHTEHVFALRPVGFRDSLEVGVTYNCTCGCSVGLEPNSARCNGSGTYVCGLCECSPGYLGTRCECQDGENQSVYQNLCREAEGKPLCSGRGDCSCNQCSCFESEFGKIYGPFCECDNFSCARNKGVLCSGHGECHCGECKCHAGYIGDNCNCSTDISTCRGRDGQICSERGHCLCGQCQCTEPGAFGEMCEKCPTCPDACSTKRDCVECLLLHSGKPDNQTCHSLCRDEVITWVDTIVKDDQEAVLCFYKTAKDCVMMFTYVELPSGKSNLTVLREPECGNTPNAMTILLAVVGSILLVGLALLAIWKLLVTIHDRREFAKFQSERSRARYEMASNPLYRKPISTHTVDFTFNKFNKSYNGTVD
T2 sequence (P06756 31-1048, chain 2 of 2): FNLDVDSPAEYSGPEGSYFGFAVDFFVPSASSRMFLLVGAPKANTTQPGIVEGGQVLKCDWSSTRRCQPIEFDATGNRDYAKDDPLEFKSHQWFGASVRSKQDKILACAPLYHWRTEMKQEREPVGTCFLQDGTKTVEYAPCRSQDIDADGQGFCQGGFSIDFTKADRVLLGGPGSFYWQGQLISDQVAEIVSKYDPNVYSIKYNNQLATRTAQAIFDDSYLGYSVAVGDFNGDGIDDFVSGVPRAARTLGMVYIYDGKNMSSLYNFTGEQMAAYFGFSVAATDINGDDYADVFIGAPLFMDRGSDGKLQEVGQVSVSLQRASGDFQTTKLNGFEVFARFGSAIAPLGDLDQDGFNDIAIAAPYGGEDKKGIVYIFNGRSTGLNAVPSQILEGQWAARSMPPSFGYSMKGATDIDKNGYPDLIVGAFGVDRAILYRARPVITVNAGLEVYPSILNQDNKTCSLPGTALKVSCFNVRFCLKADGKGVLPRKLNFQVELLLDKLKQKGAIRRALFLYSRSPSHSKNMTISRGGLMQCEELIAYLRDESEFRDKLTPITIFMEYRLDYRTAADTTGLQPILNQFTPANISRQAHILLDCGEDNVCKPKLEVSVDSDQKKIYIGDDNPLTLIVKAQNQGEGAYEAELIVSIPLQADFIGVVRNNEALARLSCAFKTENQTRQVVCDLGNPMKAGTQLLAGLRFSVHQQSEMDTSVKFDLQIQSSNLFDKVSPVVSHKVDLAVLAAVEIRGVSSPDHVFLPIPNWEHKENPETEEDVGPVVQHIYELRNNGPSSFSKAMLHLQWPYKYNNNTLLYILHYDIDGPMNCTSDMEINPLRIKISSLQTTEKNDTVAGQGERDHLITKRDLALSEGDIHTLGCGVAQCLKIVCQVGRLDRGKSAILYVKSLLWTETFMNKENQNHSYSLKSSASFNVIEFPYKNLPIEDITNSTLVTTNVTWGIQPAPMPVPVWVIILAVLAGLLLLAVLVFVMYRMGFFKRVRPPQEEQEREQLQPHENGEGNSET
Protocol: as §1, §2

T1 sequence (P05106 27-788, chain 1 of 2): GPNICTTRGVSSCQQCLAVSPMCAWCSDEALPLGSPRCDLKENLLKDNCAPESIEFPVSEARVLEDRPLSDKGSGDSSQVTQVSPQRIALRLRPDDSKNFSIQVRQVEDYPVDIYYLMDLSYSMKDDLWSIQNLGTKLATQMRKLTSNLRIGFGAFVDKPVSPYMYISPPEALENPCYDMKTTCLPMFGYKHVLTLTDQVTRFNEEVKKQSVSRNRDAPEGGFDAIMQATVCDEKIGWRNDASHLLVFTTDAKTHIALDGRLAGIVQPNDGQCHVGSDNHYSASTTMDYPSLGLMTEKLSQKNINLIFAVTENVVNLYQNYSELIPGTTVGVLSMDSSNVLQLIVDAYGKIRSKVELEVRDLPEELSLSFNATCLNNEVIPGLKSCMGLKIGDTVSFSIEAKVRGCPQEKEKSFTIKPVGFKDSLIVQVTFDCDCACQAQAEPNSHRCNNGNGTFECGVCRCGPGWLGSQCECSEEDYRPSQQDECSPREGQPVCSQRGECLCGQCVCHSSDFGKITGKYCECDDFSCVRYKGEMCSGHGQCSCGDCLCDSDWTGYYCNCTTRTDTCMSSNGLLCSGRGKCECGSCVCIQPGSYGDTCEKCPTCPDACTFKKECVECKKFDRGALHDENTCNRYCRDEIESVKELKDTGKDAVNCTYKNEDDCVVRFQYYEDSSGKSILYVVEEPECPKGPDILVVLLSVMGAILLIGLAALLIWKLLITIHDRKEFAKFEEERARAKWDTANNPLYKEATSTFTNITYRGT
T1 sequence (P06756 31-1048, chain 2 of 2): as the sequence (P06756 31-1048, chain 2 of 2) above

binding result [1]: binds
binding result [2]: binds
B1: TGF-β receptor 1 (TGFBRI) (receptor, human, UniProt P36897 34-503, looked up)
chain: LQCFCHLCTKDNFTCVTDGLCFVSVTETTDKVIHNSMCIAEIDLIPRDRPFVCAPSSKTGSVTTTYCCNQDHCNKIELPTTVKSSPGLGPVELAAVIAGPVCFVCISLMLMVYICHNRTVIHHRVPNEEDPSLDRPFISEGTTLKDLIYDMTTSGSGSGLPLLVQRTIARTIVLQESIGKGRFGEVWRGKWRGEEVAVKIFSSREERSWFREAEIYQTVMLRHENILGFIAADNKDNGTWTQLWLVSDYHEHGSLFDYLNRYTVTVEGMIKLALSTASGLAHLHMEIVGTQGKPAIAHRDLKSKNILVKKNGTCCIADLGLAVRHDSATDTIDIAPNHRVGTKRYMAPEVLDDSINMKHFESFKRADIYAMGLVFWEIARRCSIGGIHEDYQLPYYDLVPSDPSVEEMRKVVCEQKLRPNIPNRWQSCEALRVMAKIMRECWYANGAARLTALRIKKTLSQLSQQEGIKM
notes: whole, on cells; Endogenous protein of human HSCs; Detected in situ by PLA and pulled down from cell lysate with a TGFβRI antibody (Abcam ab31013); also called TGFβRI; TGFBR1
